{"source": "patent US20100040631A1", "about": "(NEW YORK BLOOD CENTER, published 2010)", "biological_target": "T1, N46 (HIV-1)", "T1 construct": "Synthetic peptide from the gp41 N-terminal heptad repeat; Used at 8 uM in CD and 0.5 uM in the ELISA; also called NHR-peptide N46", "test": "competition ELISA: inhibition of six-helix bundle formation between N46 and C34-biotin (competitor), detected with mAb NC-1", "data": [{"binder": "WQEWEQKITALLEQAQIQQEKNEYELQKLDKWASLWEWF (39-mer hybrid polypeptide)", "note": "[T-1249]", "values": [{"measurement": "EC50", "result": 800, "unit": "nM"}]}]}
